Source: doi:10.1101/2021.09.23.461563

How the values were obtained:
[1] = target: GST-ErpB (Borrelia burgdorferi strain B31); experiment: SPR
[2] = target: GST-ErpQ (Borrelia burgdorferi strain B31); experiment: SPR
[3] = target: human C1 complex (C1qC1r2C1s2) (human) (UniProt P02745); experiment: ELISA
[4] = target: C1r enzyme (activated form of human C1r) (human) (UniProt P00736); experiment: ELISA
[5] = target: C1s enzyme (activated form of human C1s) (human) (UniProt P09871); experiment: ELISA
Sequence of C1s enzyme (activated form of human C1s) (human) (P09871 16-437, chain 1 of 2): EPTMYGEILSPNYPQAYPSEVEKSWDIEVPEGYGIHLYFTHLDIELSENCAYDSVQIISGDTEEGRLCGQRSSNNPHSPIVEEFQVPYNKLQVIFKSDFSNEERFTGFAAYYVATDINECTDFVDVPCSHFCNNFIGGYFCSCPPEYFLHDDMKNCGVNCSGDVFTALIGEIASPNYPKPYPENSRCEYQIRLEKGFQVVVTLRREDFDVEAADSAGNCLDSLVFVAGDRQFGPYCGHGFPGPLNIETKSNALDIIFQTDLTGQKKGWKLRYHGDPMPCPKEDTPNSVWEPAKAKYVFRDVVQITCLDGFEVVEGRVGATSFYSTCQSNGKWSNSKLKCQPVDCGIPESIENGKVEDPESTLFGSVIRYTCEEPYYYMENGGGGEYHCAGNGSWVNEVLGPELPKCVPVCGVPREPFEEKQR
Sequence of C1s enzyme (activated form of human C1s) (human) (P09871 438-688, chain 2 of 2): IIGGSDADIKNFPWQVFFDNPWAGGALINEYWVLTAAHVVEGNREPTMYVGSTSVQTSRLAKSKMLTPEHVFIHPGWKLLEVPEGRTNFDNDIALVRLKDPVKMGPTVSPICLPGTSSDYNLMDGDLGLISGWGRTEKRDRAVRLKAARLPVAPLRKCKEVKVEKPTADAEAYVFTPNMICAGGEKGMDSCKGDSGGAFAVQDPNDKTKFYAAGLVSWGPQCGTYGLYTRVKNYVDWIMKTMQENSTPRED

Sequence of human C1 complex (C1qC1r2C1s2) (human) (P02745 whole entry, looked up, one chain of several): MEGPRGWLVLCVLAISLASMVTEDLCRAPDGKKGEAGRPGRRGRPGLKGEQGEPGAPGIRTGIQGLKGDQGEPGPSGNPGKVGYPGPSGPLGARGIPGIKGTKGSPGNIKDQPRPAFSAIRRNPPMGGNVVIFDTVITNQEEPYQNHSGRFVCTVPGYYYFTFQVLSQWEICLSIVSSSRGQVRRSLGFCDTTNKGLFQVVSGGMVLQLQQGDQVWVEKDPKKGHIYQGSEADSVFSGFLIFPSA
Sequence of C1r enzyme (activated form of human C1r) (human) (P00736 18-463, chain 1 of 2): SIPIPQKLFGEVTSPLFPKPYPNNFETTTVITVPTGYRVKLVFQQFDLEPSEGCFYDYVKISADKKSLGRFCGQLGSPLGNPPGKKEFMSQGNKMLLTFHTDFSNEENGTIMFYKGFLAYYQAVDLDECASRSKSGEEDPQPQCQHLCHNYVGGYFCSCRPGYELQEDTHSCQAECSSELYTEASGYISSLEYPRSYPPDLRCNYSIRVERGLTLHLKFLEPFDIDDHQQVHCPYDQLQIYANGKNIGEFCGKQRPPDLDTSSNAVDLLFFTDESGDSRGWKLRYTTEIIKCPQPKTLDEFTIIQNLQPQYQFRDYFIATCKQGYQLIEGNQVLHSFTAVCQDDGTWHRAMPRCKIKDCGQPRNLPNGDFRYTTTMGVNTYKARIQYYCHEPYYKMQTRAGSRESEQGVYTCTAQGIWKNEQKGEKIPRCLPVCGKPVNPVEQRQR
Sequence of C1r enzyme (activated form of human C1r) (human) (P00736 464-705, chain 2 of 2): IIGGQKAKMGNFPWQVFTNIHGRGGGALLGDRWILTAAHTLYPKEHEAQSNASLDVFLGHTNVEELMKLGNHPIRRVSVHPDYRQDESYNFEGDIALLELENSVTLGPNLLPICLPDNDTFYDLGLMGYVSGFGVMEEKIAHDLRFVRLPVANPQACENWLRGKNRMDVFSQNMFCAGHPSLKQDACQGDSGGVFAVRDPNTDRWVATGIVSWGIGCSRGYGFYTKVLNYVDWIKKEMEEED
Sequence of human C1 complex (C1qC1r2C1s2) (P02746 whole entry, looked up): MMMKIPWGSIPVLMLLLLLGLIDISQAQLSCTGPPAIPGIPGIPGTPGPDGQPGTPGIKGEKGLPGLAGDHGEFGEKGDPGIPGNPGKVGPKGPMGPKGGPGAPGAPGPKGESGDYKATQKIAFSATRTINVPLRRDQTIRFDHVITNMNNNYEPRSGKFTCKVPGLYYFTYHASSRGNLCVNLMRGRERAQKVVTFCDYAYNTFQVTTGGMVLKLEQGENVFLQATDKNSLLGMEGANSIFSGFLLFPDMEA
Sequence of human C1 complex (C1qC1r2C1s2) (P02747 whole entry, looked up): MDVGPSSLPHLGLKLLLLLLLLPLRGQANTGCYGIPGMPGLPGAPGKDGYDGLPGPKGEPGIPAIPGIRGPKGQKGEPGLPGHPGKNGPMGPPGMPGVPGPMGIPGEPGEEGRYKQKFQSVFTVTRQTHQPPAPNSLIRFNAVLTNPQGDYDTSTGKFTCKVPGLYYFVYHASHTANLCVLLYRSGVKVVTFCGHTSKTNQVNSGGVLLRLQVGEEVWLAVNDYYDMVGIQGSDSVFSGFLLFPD
Sequence of human C1 complex (C1qC1r2C1s2) (P02745 whole entry, looked up): as the sequence (P02745 whole entry, looked up, one chain of several) above

| Substance | Kd [1] | Kd [2] | Kd [3] | Kd [4] | Kd [5] |
| --- | --- | --- | --- | --- | --- |
| C1s proenzyme (human) | 270 nM | 170 nM |  |  |  |
| GST-ErpB (natural protein) |  |  | 3.4 nM | 41 nM | 6.7 nM |
| GST-ErpQ (natural protein) |  |  | 3.8 nM | 11 nM | 4.7 nM |
| human C1 complex (C1qC1r2C1s2) (from UniProt P02745 23-245; P02746 28-253; P02747 29-245) | 5.6 nM |  |  |  |  |
